In patent US20140087395A1 one finds inhibition of hemagglutination activity (trypsin-treated rabbit red blood cells) data, which are given here for one substance.

In this test the target is pig asialo-thyroglobulin (pig) (UniProt F1RRV3). Kind of test: cell-based or functional assay.
UniProt F1RRV3, sequence (F1RRV3 20-2692 limits assumed): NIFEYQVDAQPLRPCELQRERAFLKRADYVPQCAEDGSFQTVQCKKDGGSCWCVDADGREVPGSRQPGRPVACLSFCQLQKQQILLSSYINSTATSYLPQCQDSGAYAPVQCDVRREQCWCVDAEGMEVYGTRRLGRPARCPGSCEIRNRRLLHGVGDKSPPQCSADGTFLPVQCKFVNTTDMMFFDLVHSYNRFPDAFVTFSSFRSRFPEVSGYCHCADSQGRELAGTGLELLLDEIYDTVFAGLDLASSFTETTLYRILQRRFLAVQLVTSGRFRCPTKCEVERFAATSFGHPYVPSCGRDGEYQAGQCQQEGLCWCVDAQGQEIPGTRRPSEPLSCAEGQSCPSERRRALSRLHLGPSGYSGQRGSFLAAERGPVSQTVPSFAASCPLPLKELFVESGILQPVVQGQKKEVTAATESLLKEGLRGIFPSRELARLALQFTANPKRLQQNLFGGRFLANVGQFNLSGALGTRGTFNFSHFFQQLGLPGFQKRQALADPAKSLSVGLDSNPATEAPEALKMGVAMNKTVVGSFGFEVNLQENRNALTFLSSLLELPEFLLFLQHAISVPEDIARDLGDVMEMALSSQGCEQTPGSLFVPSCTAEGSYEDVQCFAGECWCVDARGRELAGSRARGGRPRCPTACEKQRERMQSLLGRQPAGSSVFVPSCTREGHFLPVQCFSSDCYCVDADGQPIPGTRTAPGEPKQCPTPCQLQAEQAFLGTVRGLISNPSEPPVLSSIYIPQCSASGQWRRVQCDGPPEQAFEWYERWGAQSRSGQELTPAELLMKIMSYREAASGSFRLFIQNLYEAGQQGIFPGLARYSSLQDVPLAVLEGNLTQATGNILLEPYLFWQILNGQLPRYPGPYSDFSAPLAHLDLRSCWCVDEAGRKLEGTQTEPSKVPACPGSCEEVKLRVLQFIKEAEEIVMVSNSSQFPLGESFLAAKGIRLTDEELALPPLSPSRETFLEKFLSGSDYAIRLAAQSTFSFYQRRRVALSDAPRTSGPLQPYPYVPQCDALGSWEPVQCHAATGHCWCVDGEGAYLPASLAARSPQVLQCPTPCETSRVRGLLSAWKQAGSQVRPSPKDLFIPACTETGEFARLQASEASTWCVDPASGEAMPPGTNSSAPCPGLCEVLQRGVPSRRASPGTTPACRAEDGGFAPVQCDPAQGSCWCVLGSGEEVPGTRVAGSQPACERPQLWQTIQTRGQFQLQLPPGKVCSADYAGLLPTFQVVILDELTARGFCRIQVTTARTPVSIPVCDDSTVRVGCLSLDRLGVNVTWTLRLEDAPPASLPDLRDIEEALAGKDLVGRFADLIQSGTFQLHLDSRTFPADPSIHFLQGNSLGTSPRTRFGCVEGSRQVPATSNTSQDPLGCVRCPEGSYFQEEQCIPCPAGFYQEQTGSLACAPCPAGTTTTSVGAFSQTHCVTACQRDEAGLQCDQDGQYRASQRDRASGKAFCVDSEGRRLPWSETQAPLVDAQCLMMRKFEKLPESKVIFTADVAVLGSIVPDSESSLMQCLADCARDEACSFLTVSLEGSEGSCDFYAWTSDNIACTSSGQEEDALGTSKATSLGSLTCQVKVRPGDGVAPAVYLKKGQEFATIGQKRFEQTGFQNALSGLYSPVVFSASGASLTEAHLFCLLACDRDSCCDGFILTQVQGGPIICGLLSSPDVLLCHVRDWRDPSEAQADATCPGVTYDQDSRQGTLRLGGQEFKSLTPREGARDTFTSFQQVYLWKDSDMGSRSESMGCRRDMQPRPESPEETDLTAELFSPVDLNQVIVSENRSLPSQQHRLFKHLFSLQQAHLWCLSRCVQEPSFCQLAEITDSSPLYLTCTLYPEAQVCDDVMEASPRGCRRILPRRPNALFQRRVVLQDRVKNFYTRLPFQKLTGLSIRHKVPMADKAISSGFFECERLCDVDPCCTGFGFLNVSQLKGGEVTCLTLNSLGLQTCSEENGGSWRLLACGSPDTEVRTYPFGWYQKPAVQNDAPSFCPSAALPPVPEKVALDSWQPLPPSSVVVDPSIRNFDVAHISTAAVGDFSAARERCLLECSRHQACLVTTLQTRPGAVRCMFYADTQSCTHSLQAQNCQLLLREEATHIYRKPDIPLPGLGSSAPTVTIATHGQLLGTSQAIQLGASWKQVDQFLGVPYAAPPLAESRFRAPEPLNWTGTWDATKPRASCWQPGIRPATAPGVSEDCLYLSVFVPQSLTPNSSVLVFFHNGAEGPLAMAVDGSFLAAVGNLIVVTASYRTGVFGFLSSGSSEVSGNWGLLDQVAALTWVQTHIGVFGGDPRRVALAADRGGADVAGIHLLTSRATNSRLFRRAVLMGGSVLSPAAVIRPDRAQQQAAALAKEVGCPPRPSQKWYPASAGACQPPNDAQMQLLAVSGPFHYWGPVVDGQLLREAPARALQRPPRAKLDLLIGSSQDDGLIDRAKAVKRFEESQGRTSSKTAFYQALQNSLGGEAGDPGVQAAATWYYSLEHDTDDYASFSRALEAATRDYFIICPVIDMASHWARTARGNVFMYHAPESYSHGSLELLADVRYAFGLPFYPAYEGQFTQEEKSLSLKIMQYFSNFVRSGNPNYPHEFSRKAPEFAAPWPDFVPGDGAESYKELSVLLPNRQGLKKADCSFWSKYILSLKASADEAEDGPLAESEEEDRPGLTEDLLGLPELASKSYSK

In the case of “CBA (Codium barbatum agglutinin), purified from Codium barbatum”, the inhibition of hemagglutination activity (trypsin-treated rabbit red blood cells) amounted to 31 µg/mL.
